Article doi:10.1101/2022.04.27.489752

Tests used:
[1] = biological target: CapH C-terminal domain (residues 67-107), crystallised (E. coli MS115-1); assay: crystal structure
[2] = biological target: MBP-fused CapH (I99M) mutant (E. coli MS115-1); assay: SEC-MALS
[3] = biological target: CapH C-terminal domain (residues 67-107) with Ile99 to Met mutation, crystallised (E. coli MS115-1); assay: crystal structure

CapH C-terminal domain (residues 67-107), crystallised (domain or fragment)
stoichiometry N [1]: 4

MBP-fused CapH (I99M) mutant (natural protein)
stoichiometry N [2]: 2

CapH C-terminal domain (residues 67-107) with Ile99 to Met mutation, crystallised (domain or fragment)
stoichiometry N [3]: 2
